Experimental data from patent US20160108115.

How the values were obtained:
Experiment in all cases: SPR, pH 7.4
Conditions in all cases: remark: other sources report otherwise
FcγRI (human) = FcγRI (human) (UniProt P12314)
FcγRIIIb (human) = FcγRIIIb (human) (UniProt O75015)
FcγRIIIa (human) = FcγRIIIa (human) (UniProt P08637)
FcγRIIIa (human), sequence (P08637 17-208): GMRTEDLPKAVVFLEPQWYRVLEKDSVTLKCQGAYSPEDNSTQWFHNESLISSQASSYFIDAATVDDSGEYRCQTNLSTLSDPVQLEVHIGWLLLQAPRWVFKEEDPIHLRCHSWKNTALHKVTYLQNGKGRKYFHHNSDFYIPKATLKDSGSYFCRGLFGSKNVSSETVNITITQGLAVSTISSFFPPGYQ

FcγRIIIb (human), sequence (O75015 17-200): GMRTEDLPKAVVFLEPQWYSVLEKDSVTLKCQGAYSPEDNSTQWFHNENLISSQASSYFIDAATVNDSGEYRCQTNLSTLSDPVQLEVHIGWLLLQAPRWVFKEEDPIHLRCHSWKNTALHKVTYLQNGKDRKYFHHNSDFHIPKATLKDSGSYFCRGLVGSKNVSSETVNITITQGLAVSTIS
FcγRI (human), sequence (P12314 16-288): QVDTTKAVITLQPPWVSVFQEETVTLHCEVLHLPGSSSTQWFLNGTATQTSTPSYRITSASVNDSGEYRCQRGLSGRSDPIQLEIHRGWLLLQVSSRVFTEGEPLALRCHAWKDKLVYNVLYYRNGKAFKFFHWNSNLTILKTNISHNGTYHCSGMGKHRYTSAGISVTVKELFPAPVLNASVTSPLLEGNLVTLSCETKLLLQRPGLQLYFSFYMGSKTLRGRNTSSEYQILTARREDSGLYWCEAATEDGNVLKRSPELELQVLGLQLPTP

Question: eculizumab (full length) was tested. Which Kd (FcγRI (human)) did it give?
Answer: 3.78 µM

Question: And the Kd (FcγRIIIb (human))?
Answer: 3.49 µM

Question: What about the Kd (FcγRIIIa (human)) of the same substance?
Answer: 6.78 µM
